From patent US20230242611A1 (YEDA RESEARCH AND DEVELOPMENT, published 2023) come the findings set out here.

Experiment [1] has as its target MAGE-A1278-286 peptide presented on HLA-A2 on cells (peptide-loaded T2 cells; 721.211-A2 MAGE-A1+ cells) (human). Nature of the experiment: cell-based or functional assay.
The target of experiment [2] is T1, MAGE-A1 peptide on HLA-A*02:01 (human).
T1 peptide: KVLEYVIKV
The experiment in a line: multimer staining.

In experiment [3] the target is T2, MUC1 peptide on HLA-A*02:01 (human).
T2 peptide: LLLTVLTVV
The experiment in a line: killing.

Experiment [4] concerns the target T3, MAGE-A1 278-286 with alanine at position 7 peptide on HLA-A*02:01 (human).
T3 peptide: KVLEYVAKV
The experiment in a line: cytokine release.

Experiment [5] deals with T4, MAGE-A1 278-286 with alanine at position 8 peptide on HLA-A*02:01 (human).
T4 peptide: KVLEYVIAV
Nature of the experiment: cytokine release.

Experiment [6] has as its target T5, MAGE-A1 278-286 with alanine at position 9 peptide on HLA-A*02:01 (human).
T5 peptide: KVLEYVIKA
Nature of the experiment: cytokine release.

The target in experiment [7] is T6, MAGE-A1 278-286 with alanine at position 1 peptide on HLA-A*02:01 (human).
T6 peptide: AVLEYVIKV
The experiment in a line: cytokine release.

In experiment [8] the target is T7, MAGE-A1 278-286 with alanine at position 2 peptide on HLA-A*02:01 (human).
T7 peptide: KALEYVIKV
Nature of the experiment: cytokine release.

Experiment [9] deals with T8, MAGE-A1 278-286 with alanine at position 6 peptide on HLA-A*02:01 (human).
T8 peptide: KVLEYAIKV
Nature of the experiment: cytokine release.

For experiment [10], the target named is T9, MAGE-A1 278-286 with alanine at position 3 peptide on HLA-A*02:01 (human).
T9 peptide: KVAEYVIKV
Nature of the experiment: cytokine release.

Experiment [11] addresses T10, MAGE-A1 278-286 with alanine at position 4 peptide on HLA-A*02:01 (human).
T10 peptide: KVLAYVIKV
The experiment in a line: cytokine release.

The target of experiment [12] is T11, MAGE-A1 278-286 with alanine at position 5 peptide on HLA-A*02:01 (human).
T11 peptide: KVLEAVIKV
Nature of the experiment: cytokine release.

B1: hT27 TCR comprising W55L+Y56F mutations in the alpha chain (m9) (TCR, V domains shown)
V domain 1: EDVEQSLFLSVREGDSSVINCTYTDSSSTYLYLFKQEPGAGLQLLTYIFSNMDMKQDQRLTVLLNKKDKHLSLRIADTQTGDSAIYFCAGSGGGTDKLIFGTGTRLQVFP
V domain 2: AVVSQHPSWVICKSGTSVKIECRSLDFQATTMFWYRQFPKQSLMLMATSNEGSKATYEQGVEKDKFLINHASLTLSTLTVTSAHPEDSSFYICSAREPGQGPYEQYFGPGTRLTVTE
Turning to B1, in [1], the “% IFNγ+ cells after co-culture with 721.211-A2 cells” value (“% IFNγ+ cells after co-culture” for short) was 5.4 % IFNγ+; the “EC50 of IFNγ production (peptide concentration), T2 cells loaded with MAGE-A1 peptide” value (“EC50 of IFNγ production … with MAGE-A1 peptide” for short) amounted to 0.275 pM; the “EC50 of IFNγ production against WT hT27” value was ~4 orders of magnitude lower than WT hT27 TCR; the “EC50 of IL2 production against WT hT27” value is ~3 orders of magnitude lower than WT hT27 TCR.

B2: wild type (WT) hT27 TCR, MAGE-A1 specific (TCR)
TCR alpha: RGEDVEQSLFLSVREGDSSVINCTYTDSSSTYLYWYKQEPGAGLQLLTYIFSNMDMKQDQRLTVLLNKKDKHLSLRIADTQTGDSAIYFCAGSGGGTDKLIFGTGTRLQVFPNIQNPEPAVYQLKDPRSQDSTLCLFTDFDSQINVPKTMESGTFITDKTVLDMKAMDSKSNGAIAWSNQTSFTCQDIFKETNATYPSSDVPCDATLTEKSFETDMNLNFQNLSVMGLRILLLKVAGFNLLMTLRLWSS
TCR beta: AVVSQHPSWVICKSGTSVKIECRSLDFQATTMFWYRQFPKQSLMLMATSNEGSKATYEQGVEKDKFLINHASLTLSTLTVTSAHPEDSSFYICSAREPGQGPYEQYFGPGTRLTVTEDLRNVTPPKVSLFEPSKAEIANKQKATLVCLARGFFPDHVELSWWVNGKEVHSGVSTDPQAYKESNYSYCLSSRLRVSATFWHNPRNHFRCQVQFHGLSEEDKWPEGSPKPVTQNISAEAWGRADCGITSASYHQGVLSATILYEILLGKATLYAVLVSGLVLMAMVKKKNS
Regarding B2, in experiment [1], the “% IFNγ+ cells after co-culture” value amounted to 3.3 % IFNγ+ and the “EC50 of IFNγ production … with MAGE-A1 peptide” value was determined as 3540 pM.

B3: hT27 TCR comprising S109N mutation in the beta chain (m2) (TCR, V domains shown)
V domain 1: RGEDVEQSLFLSVREGDSSVINCTYTDSSSTYLYWYKQEPGAGLQLLTYIFSNMDMKQDQRLTVLLNKKDKHLSLRIADTQTGDSAIYFCAGSGGGTDKLIFGTGTRLQVFP
V domain 2: AVVSQHPSWVICKSGTSVKIECRSLDFQATTMFWYRQFPKQSLMLMATSNEGSKATYEQGVEKDKFLINHASLTLSTLTVTSAHPEDSSFYICNAREPGQGPYEQYFGPGTRLTVTE
In the case of B3, in experiment [1], the “% IFNγ+ cells after co-culture” value turned out to be 49.7 % IFNγ+, the “EC50 of IFNγ production against WT hT27” value was ~4 orders of magnitude lower than WT hT27 TCR and the “EC50 of IL2 production against WT hT27” value is ~3 orders of magnitude lower than WT hT27 TCR.

B4: hT27 TCR comprising G125V mutation in the alpha chain (m8) (TCR)
TCR alpha: RGEDVEQSLFLSVREGDSSVINCTYTDSSSTYLYWYKQEPGAGLQLLTYIFSNMDMKQDQRLTVLLNKKDKHLSLRIADTQTGDSAIYFCAGSGGGTDKLIFGTVTRLQVFPNIQNPEPAVYQLKDPRSQDSTLCLFTDFDSQINVPKTMESGTFITDKTVLDMKAMDSKSNGAIAWSNQTSFTCQDIFKETNATYPSSDVPCDATLTEKSFETDMNLNFQNLSVMGLRILLLKVAGFNLLMTLRLWSS
TCR beta: AVVSQHPSWVICKSGTSVKIECRSLDFQATTMFWYRQFPKQSLMLMATSNEGSKATYEQGVEKDKFLINHASLTLSTLTVTSAHPEDSSFYICSAREPGQGPYEQYFGPGTRLTVTEDLRNVTPPKVSLFEPSKAEIANKQKATLVCLARGFFPDHVELSWWVNGKEVHSGVSTDPQAYKESNYSYCLSSRLRVSATFWHNPRNHFRCQVQFHGLSEEDKWPEGSPKPVTQNISAEAWGRADCGITSASYHQGVLSATILYEILLGKATLYAVLVSGLVLMAMVKKKNS
On to B4, for which, in experiment [1], the “% IFNγ+ cells after co-culture” value is 3.8 % IFNγ+; the “EC50 of IFNγ production … with MAGE-A1 peptide” value is 0.982 pM; the “EC50 of IFNγ production against WT hT27” value was ~4 orders of magnitude lower than WT hT27 TCR; the “EC50 of IL2 production against WT hT27” value was ~3 orders of magnitude lower than WT hT27 TCR.

B5: hT27 TCR comprising T63I mutation in the beta chain (m3) (TCR, V domains shown)
V domain 1: RGEDVEQSLFLSVREGDSSVINCTYTDSSSTYLYWYKQEPGAGLQLLTYIFSNMDMKQDQRLTVLLNKKDKHLSLRIADTQTGDSAIYFCAGSGGGTDKLIFGTGTRLQVFP
V domain 2: AVVSQHPSWVICKSGTSVKIECRSLDFQATTMFWYRQFPKQSLMLMAISNEGSKATYEQGVEKDKFLINHASLTLSTLTVTSAHPEDSSFYICSAREPGQGPYEQYFGPGTRLTVTE
As for B5, in experiment [1], the “% IFNγ+ cells after co-culture” value was determined as 6.9 % IFNγ+; the “EC50 of IFNγ production … with MAGE-A1 peptide” value was found to be 0.352 pM; the “EC50 of IFNγ production against WT hT27” value is ~4 orders of magnitude lower than WT hT27 TCR; the “EC50 of IL2 production against WT hT27” value is ~3 orders of magnitude lower than WT hT27 TCR.

B6: hT27 TCR with beta chain S32T and S109N mutations (TCR, V domains shown)
Valpha: GEDVEQSLFLSVREGDSSVINCTYTDSSSTYLYWYKQEPGAGLQLLTYIFSNMDMKQDQRLTVLLNKKDKHLSLRIADTQTGDSAIYFCAGSGGGTDKLIFGTGTRLQVFP
Vbeta: GAVVSQHPSWVICKSGTTVKIECRSLDFQATTMFWYRQFPKQSLMLMATSNEGSKATYEQGVEKDKFLINHASLTLSTLTVTSAHPEDSSFYICNAREPGQGPYEQYFGPGTRLTVT
For the molecule B6, the binding result in [2] is “recognises”.

B7: hT27 TCR m7 (alpha chain G125A) (TCR, V domains shown)
Valpha: GEDVEQSLFLSVREGDSSVINCTYTDSSSTYLYWYKQEPGAGLQLLTYIFSNMDMKQDQRLTVLLNKKDKHLSLRIADTQTGDSAIYFCAGSGGGTDKLIFGTATRLQVFP
Vbeta: GAVVSQHPSWVICKSGTSVKIECRSLDFQATTMFWYRQFPKQSLMLMATSNEGSKATYEQGVEKDKFLINHASLTLSTLTVTSAHPEDSSFYICSAREPGQGPYEQYFGPGTRLTVT
B7: in experiment [2], the binding result is “recognises”.

B8: hT27 TCR m8 (alpha chain G125V) (TCR, V domains shown)
Valpha: GEDVEQSLFLSVREGDSSVINCTYTDSSSTYLYWYKQEPGAGLQLLTYIFSNMDMKQDQRLTVLLNKKDKHLSLRIADTQTGDSAIYFCAGSGGGTDKLIFGTVTRLQVFP
Vbeta: GAVVSQHPSWVICKSGTSVKIECRSLDFQATTMFWYRQFPKQSLMLMATSNEGSKATYEQGVEKDKFLINHASLTLSTLTVTSAHPEDSSFYICSAREPGQGPYEQYFGPGTRLTVT
Regarding B8, the binding result is “no recognition” in experiment [3]; “recognises” in experiment [4]; “recognises” in experiment [5]; “recognises” in experiment [6]; “recognises” in experiment [7]; “recognises” in experiment [8]. In addition, the binding result in [9] and in [2] was “recognises” in each case.

B9: hT27 TCR m3 (beta chain T63I) (TCR, V domains shown)
Valpha: GEDVEQSLFLSVREGDSSVINCTYTDSSSTYLYWYKQEPGAGLQLLTYIFSNMDMKQDQRLTVLLNKKDKHLSLRIADTQTGDSAIYFCAGSGGGTDKLIFGTGTRLQVFP
Vbeta: GAVVSQHPSWVICKSGTSVKIECRSLDFQATTMFWYRQFPKQSLMLMAISNEGSKATYEQGVEKDKFLINHASLTLSTLTVTSAHPEDSSFYICSAREPGQGPYEQYFGPGTRLTVT
As to B9, the binding result in experiment [3] is recorded as “no recognition”; in experiment [4], “recognises”; in experiment [5], “recognises”; in experiment [6] it was “recognises”; in experiment [7], “recognises”; in [8], “recognises”. Besides, the binding result in experiment [9] and in experiment [2] was “recognises” each time.

B10: hT27 TCR (TCR, V domains shown)
Valpha: GEDVEQSLFLSVREGDSSVINCTYTDSSSTYLYWYKQEPGAGLQLLTYIFSNMDMKQDQRLTVLLNKKDKHLSLRIADTQTGDSAIYFCAGSGGGTDKLIFGTGTRLQVFP
Vbeta: GAVVSQHPSWVICKSGTSVKIECRSLDFQATTMFWYRQFPKQSLMLMATSNEGSKATYEQGVEKDKFLINHASLTLSTLTVTSAHPEDSSFYICSAREPGQGPYEQYFGPGTRLTVT
With B10, the binding result in experiment [3] is given as “no recognition”; in experiment [5], “no recognition”; in [6], “recognises”; in experiment [7], “recognises”; in [10], “no recognition”; in [11] it was “no recognition”. The binding result in experiment [12] and in [9] was “no recognition” throughout.
